The target of assay [1] is T1, Recombinant human IL-15 (human, UniProt P40933 49-162).
T1 construct: also called rIL-15; human rIL-15
The assay is described as follows: SPR. On the technique in general: Surface plasmon resonance follows binding to a sensor surface in real time, without labels.

In assay [2] the target is T1, Recombinant human IL-15. The assay is described as follows: SPR, analysis of sensorgrams. The procedure:
(§1) These experiments were performed with a BIACore 2000 biosensor (BIACore, Uppsala, Sweden). rIL-15 was covalently linked to CM5 sensor chips, and the binding of increasing concentrations of sIL-15Rα-IL-2, sIL-15Rα-sushi-IL-2 or sIL-15Rα-sushi was monitored. Analysis of sensograms was performed using BIAlogue kinetics evaluation software.

The target in assay [3] is T1, Recombinant human IL-15. The assay is described as follows: cell-based or functional assay.
Assay [4] deals with T1, Recombinant human IL-15. The assay is described as follows: Competition with 125I-rIL-15 (200 pM) binding to IL-15Rα on TF-1 cells. The protocol: The three soluble forms of IL-15Rα were tested for their ability to compete out the binding of radio-iodinated IL-15 to IL-15Rα expressed by the human cell line TF-1 which also expresses the IL-15Rγ chain, but not the IL-15Rβ chain (FIG. 1D).

In assay [5] the target is T1, Recombinant human IL-15. The assay is described as follows: SPR, BIAcore 2000. The protocol: as §1
Assay [6] addresses T2, IL-15Rβ/γ complex (intermediate affinity receptor), human (human, UniProt P14784 27-551; P31785 23-369).
T2 construct: whole, on cells; Found on Mo-7 cells, which express IL-15Rβ/γ but not IL-15Rα; also called IL-15Rbeta/gamma; IL-2Rβ/γ
Kind of assay: 125I-sIL-15Rα-sushi saturation binding to TF-1β cells in the presence of 1 nM rIL-15. The procedure: Labeling with [¹²⁵I]-iodine of human rIL-15, sIL-15Rα-sushi and RLI fusion protein, and subsequent binding experiments were performed as described previously (19). For internalization, cells were equilibrated at 4° C. with labeled sIL-15Rα-sushi or RLI, and the temperature switched to 37° C. At different time intervals, two samples were washed and centrifuged. One of the cell pellets was treated with glycine-HCl buffer 0.2 M, pH 2.5, whereas the other was treated with PBS pH 7.4 at 4° C. for 5 min. After centrifugation, total ligand binding was determined from the pellet of the cells treated with PBS, whereas the membrane bound and internalized fractions were determined respectively from the supernatant and pellet of cells treated with acid pH.
As further shown in FIG. 6D, the radiolabeled sIL-15Rα-sushi was efficiently internalized. Radiolabeled RLI fusion protein also bound to TF1β cells (FIG. 6E). […] Once bound, the RLI was also efficiently internalized (FIG. 6F).

T1 sequence (P40933 49-162 limits assumed): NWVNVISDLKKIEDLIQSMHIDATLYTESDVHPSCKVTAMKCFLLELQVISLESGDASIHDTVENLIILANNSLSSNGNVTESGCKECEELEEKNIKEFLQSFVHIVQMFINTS
T2 sequence (P14784 whole entry, chain 1 of 2): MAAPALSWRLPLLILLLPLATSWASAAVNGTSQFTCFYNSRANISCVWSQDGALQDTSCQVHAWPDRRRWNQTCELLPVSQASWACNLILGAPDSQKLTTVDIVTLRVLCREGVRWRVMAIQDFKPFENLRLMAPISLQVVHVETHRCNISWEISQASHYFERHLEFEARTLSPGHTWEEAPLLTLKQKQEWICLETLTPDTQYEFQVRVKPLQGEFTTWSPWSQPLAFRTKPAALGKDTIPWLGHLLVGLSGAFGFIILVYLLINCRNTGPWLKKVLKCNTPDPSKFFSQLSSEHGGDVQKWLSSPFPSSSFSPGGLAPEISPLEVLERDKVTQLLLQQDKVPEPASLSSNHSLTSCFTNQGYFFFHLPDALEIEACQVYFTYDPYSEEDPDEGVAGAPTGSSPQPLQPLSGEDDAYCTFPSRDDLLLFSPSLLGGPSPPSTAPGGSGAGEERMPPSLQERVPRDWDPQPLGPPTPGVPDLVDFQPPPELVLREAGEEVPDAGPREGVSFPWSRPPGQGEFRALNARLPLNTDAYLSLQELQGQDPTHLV
T2 sequence (P31785 whole entry, chain 2 of 2): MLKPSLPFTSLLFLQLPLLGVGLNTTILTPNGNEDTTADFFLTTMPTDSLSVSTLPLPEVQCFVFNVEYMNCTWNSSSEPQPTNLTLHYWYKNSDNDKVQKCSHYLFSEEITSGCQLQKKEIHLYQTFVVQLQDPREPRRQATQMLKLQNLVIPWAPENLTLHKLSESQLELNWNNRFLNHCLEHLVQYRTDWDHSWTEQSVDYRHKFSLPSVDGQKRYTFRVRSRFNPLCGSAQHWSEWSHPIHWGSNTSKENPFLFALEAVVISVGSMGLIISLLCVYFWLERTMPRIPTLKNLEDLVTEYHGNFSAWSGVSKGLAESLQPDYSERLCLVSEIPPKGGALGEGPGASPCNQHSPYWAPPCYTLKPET

B1: sIL-15Rα-Sushi+ (receptor)
chain: ITCPPPMSVEHADIWVKSYSLYSRERYICNSGFKRKAGTSSLTECVLNKATNVAHWTTPSLKCIRDPALVHQRPAPP
notes: Expressed in SF9 insect cells; No sentence names it for Sushi+; also called Sushi15+; Flag-Factor Xa tagged sIL-15Rα-Sushi+; not shown: Flag-Factor Xa tag
As a reminder, the Kd is a measure of binding affinity in units of concentration. With B1, in assay [1], the “fold increase in binding affinity compared to sIL-15Rα-Sushi-IL-2” value stood at 4 fold and the “fold lower affinity than the full length soluble IL-15Rα” value worked out at 3 fold. Besides, in assay [2], the Kd is 0.102 nM.

B2: sIL-15Rα-sushi (receptor)
chain: ITCPPPMSVEHADIWVKSYSLYSRERYICNSGFKRKAGTSSLTECVLNKATNVAHWTTPSLKCIRD
notes: also called soluble sushi domain; not shown: Vector-encoded tag of pQE30; The protein was trapped on Ni-NTA agarose
In general, IC50 refers to the concentration that gives 50% inhibition. Usually koff stands for the rate constant with which the complex falls apart. A word on the kon: it is a measure of how fast the partners come together. Take B2: the “IC50 of the potentiation of Mo-7 proliferation driven by a fixed concentration of rIL-15 (1 nM)” value in assay [3] was found to be 3.5 nM. Besides, the IC50 in assay [4] is 1.3 nM. In addition, in assay [5], the Kd amounted to 1.5 nM, the koff was 0.00038 s⁻¹ and the kon turned out to be 250000 M⁻¹ s⁻¹. Besides, the dissociation constant (Kd) in assay [6] was 3.5 nM.
